According to the supplement of paper PMC9732359:
± gives the uncertainty stated by the source.

Assay: protein stability index of a GFP-peptide fusion (yeast GPS) (PSI 1-4); higher = more stable; sorted into four equal gates, so the index is relative within each strain
How it was run: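 The protein stability index combines read frequencies across sorting gates, each weighted by its gate number and then summed. To obtain those frequencies, a pooled yeast library of GFP fusions to tiled 17-residue yeast protein peptides, on a plasmid also expressing Cherry, was grown to mid-log phase in leucine-free medium. The cells were sorted into four equal gates by GFP/Cherry ratio before plasmid amplification by PCR and Illumina sequencing.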

Sequence | protein stability index (doa10∆) | protein stability index (pdr5∆) | protein stability index (san1∆) | protein stability index (ubr1∆)
EKWLLNQIPVTEHSKVT [SRB6] | 1.9 ± 0.051 | 2.6 ± 0.068 | 1.99 ± 0.12 | 2.37 ± 0.057
DSIYTKPVKVALIFIFF [YJL039C/NUP192] | 1.69 ± 0.039 | 1.68 ± 0.033 | 1.5 ± 0.058 | 1.68 ± 0.023
SVIVDSKVTVPPSKHST [ESC2] | 2.75 ± 0.11 | 2.93 ± 0.089 | 2.72 ± 0.092 | 2.81 ± 0.049
RPYGVGLLIIGYDKSGA [PRE5] | 1.68 ± 0.12 | 1.08 ± 0.14 |  | 1.06 ± 0.12
SSEILSYLSNSLDTSAS [YML103C/NUP188] | 2.96 ± 0.091 | 2.7 ± 0.069 | 2.25 ± 0.063 | 2.65 ± 0.055
NKKGRGHVKPVRCVNCS [RPS26A] | 3.18 ± 0.065 | 2.98 ± 0.077 | 2.98 ± 0.085 | 3.02 ± 0.076
KKDVEKELPDKVEKVVK [SNF2] | 3.52 ± 0.23 | 3.47 ± 0.14 | 3.39 ± 0.099 | 3.34 ± 0.089
LEKCEAEFKKRKIEAET [YCS4] | 2.79 ± 0.14 | 3.17 ± 0.084 | 3.3 ± 0.21 | 2.98 ± 0.14
PTLPRSDRECPKCHSRE [RPB9] | 2.79 ± 0.052 | 2.92 ± 0.056 | 2.82 ± 0.053 | 2.84 ± 0.043
RKEWFDIKAPSTFENRN [RPS1A] | 1.95 ± 0.093 | 2.46 ± 0.07 | 1.77 ± 0.098 | 3.02 ± 0.06
RVLEIQTSLVRMFEKNV [SKI6] | 3.35 ± 0.094 | 3.07 ± 0.065 | 2.51 ± 0.078 | 3.12 ± 0.047
PQTPLVEPVTERTKLQE [SNU114] | 3.29 ± 0.15 | 3.07 ± 0.18 | 3.08 ± 0.1 | 3.31 ± 0.13
IRNCATEAGFFAIRDDR [RPT4] | 2.82 ± 0.062 | 3.24 ± 0.079 | 2.78 ± 0.097 | 2.91 ± 0.042
LKSIESLKLENSDLEGK [SMC2] | 3.07 ± 0.13 | 2.8 ± 0.099 | 3.39 ± 0.17 | 2.99 ± 0.12
ARTAANSIYCPTQTVAE [RPN6] | 2.63 ± 0.062 | 1.76 ± 0.067 | 1.42 ± 0.11 | 2.04 ± 0.045
FKATIQILQGICKNCSA [RPO31] | 1.69 ± 0.044 | 1.77 ± 0.038 | 1.76 ± 0.061 | 1.79 ± 0.046
MIQEVIVEEDLEPFEAS [FAS2] | 3.5 ± 0.18 | 3.16 ± 0.11 | 3.53 ± 0.063 | 3.47 ± 0.099
SNLTIYPIYELLMSCPR [GRR1] | 1.72 ± 0.083 | 1.75 ± 0.071 | 1.89 ± 0.13 | 1.83 ± 0.056
RLQFAQGSVRRLTVSAR [QCR2] | 1.33 ± 0.075 | 1.39 ± 0.13 | 1.77 ± 0.27 | 1.14 ± 0.073
LISSSGPIKTPVGACAT [FAS2] | 1.76 ± 0.053 | 1.76 ± 0.11 | 1.31 ± 0.098 | 2.17 ± 0.071
IFTDFLPSSNGSSRIIA [RRP42] | 3.15 ± 0.085 | 2.89 ± 0.084 | 3.07 ± 0.073 | 2.8 ± 0.069
VDEEDENGTHNDEVNED [YCG1] | 3.46 ± 0.09 | 3.32 ± 0.17 | 3.55 ± 0.11 | 3.51 ± 0.077
APEIPEDLYYLIKKAVS [RPS13] | 2.94 ± 0.081 | 2.92 ± 0.096 | 3.07 ± 0.079 | 2.69 ± 0.13
SVDICNNSKSRYPMNLL [ECM29] | 1.86 ± 0.1 | 2.35 ± 0.056 | 2.71 ± 0.077 | 1.31 ± 0.079
AFSFGAKPDEKKNDEVS [YJL041W/NSP1] | 3.22 ± 0.16 | 3.19 ± 0.15 |  | 3.26 ± 0.17
GMTKSNIYNFSPSERIE [BRR2] | 3.18 ± 0.082 | 3.38 ± 0.082 | 3.01 ± 0.19 | 2.96 ± 0.059

Sequence | protein stability index (doa10∆) | protein stability index (pdr5∆) | protein stability index (san1∆) | protein stability index (ubr1∆)
ASSWAKKIAQRERRAAL [RPL14A] | 2.53 ± 0.099 | 3.32 ± 0.14 | 2.62 ± 0.18 | 2.22 ± 0.079
NDRNPRLNENKKIGCYM [CSN12] | 3.04 ± 0.069 | 3.22 ± 0.072 | 3.12 ± 0.051 | 3.26 ± 0.065
RAANQGALPPDLSLIVK [CYT1] | 2.95 ± 0.11 | 3 ± 0.074 | 3.03 ± 0.18 | 2.87 ± 0.074
DDDEVDYSEIQRSRRKF [DSN1] | 2.66 ± 0.1 | 3.66 ± 0.23 | 3.04 ± 0.2 | 2.75 ± 0.16
TKDLLSKSPSEWQDIIH [CSE2] | 3.1 ± 0.082 | 2.99 ± 0.077 | 3.07 ± 0.075 | 3.17 ± 0.049
SPSYSPTSPSYSPTSPS [RPO21] | 2 ± 0.032 | 2.33 ± 0.03 | 2.06 ± 0.034 | 2.1 ± 0.025
IRKDPNNLSNQLETLTG [CSE2] | 2.87 ± 0.11 | 2.91 ± 0.098 | 2.68 ± 0.11 | 2.77 ± 0.095
MLLVDIIPSRMGEAQTG [REC8] | 1.7 ± 0.063 | 1.87 ± 0.073 | 2.02 ± 0.09 | 2.17 ± 0.061
FQSVQLNINNPNFLIMQ [SMC2] | 2.6 ± 0.06 | 2.62 ± 0.071 | 1.75 ± 0.062 | 2.1 ± 0.061
KSTTPYVSALKRINKFL [POP7] | 2.04 ± 0.047 | 1.55 ± 0.036 | 2 ± 0.067 | 1.63 ± 0.034
AIPNPEDVVAISSRTYG [RPS0B] | 3.33 ± 0.11 | 3.07 ± 0.055 | 2.99 ± 0.079 | 3.09 ± 0.047
MFAYAKEHEPCIIFMDE [RPT4] | 2.34 ± 0.043 | 2.32 ± 0.05 | 2.24 ± 0.065 | 2.4 ± 0.043
LDLMFDEVYVQNSKFLK [YJL039C/NUP192] | 2.94 ± 0.066 | 2.94 ± 0.055 | 2.87 ± 0.071 | 2.87 ± 0.034
LRAAQQQWGNDFYKRDP [FAS2] | 2.44 ± 0.068 | 2.77 ± 0.051 | 2.32 ± 0.12 | 2.71 ± 0.047
QGDVEQIAAQSPVELSR [SMC1] | 2.66 ± 0.087 | 2.92 ± 0.067 | 3.08 ± 0.063 | 2.83 ± 0.073
LWRNFCRKLSFSDKVNA [ITC1] | 2.09 ± 0.19 | 1.76 ± 0.2 | 1.14 ± 0.23 | 1.37 ± 0.094
IRYNAKRRNWRRTKMNI [RPL39] | 3.23 ± 0.095 | 3.23 ± 0.093 | 3.07 ± 0.095 | 3.32 ± 0.057
YDSRSGTHNMYKEIRDV [RPL20A] | 3.11 ± 0.069 | 3.06 ± 0.064 | 3.16 ± 0.043 | 3.18 ± 0.056
NVFGQDNEDSDNLFGET [SWI3] | 3.37 ± 0.13 | 3.7 ± 0.13 | 3.23 ± 0.12 | 3.5 ± 0.094
VQYKLLSISVPSDVNID [SNU114] | 1.98 ± 0.076 | 2.5 ± 0.069 | 2.1 ± 0.074 | 2.44 ± 0.069
FEYEGVQDIIGNGKLSE [RPN1] |  | 2.85 ± 0.18 | 3.21 ± 0.26 | 2.74 ± 0.1
CINKWIKTRDACPLDNQ [HRT1] | 3.16 ± 0.093 | 3.03 ± 0.079 | 2.72 ± 0.078 | 3.17 ± 0.05
LAEKVEKASRQQRKQKK [RPS24A] | 3.65 ± 0.27 | 3.33 ± 0.11 | 3.35 ± 0.1 | 3.15 ± 0.2
TKPSDLTIKDIVLGVKD [RPO21] | 2.51 ± 0.085 | 2.15 ± 0.1 | 1.95 ± 0.15 | 2.83 ± 0.044
NNNGNPGTTSTGNNNNI [GAL11] | 3.18 ± 0.12 | 3.34 ± 0.075 | 3.18 ± 0.061 | 3.23 ± 0.07
QRQDFERVRLRPEQLSN [SNF6] | 1.98 ± 0.05 | 2.43 ± 0.062 | 2.21 ± 0.064 | 2.25 ± 0.034
